Experimental data as given in patent publication US20100303724A1.
Values belong to the substance of their own block, whether it stands above or below them.

What was measured:
biotin-collagelin [1] = experiment: SPR; biotin-collagelin on a streptavidin sensorchip, IgG 1.25 to 10 µg/mL
biotin-collagelin [2] = experiment: SPR
biotin-collagelin [3] = experiment: SPR; collagen injected on biotin-collagelin on a streptavidin sensorchip

biotin-collagelin, sequence (peptide, as listed by the source): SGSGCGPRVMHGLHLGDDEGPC

Kd (biotin-collagelin [1]): 1 µM
Substance: anti-human platelet GPVI 9O12.2 IgG (antibody)

Kd (biotin-collagelin [2]): 18.3 µM
Substance: murine laminin (Gibco)

RU bound (biotin-collagelin [3]): 10 RU
Substance: type I equine fibrillar collagen (Collagen Horm, Nycomed)
